Assay results as given in patent US20160145654A1.

Key:
[1] = molecular target: labeled mouse IgG2b monoclonal antibody conjugated to phycoerythrin; assay: FACS of particles with 10 µg/ml PE labeled mouse IgG2b mAb
[2] = molecular target: labeled mouse IgG2b monoclonal antibody conjugated to phycoerythrin; assay: FACS of particles with 10 µg/mL PE labeled mouse IgG2b mAb
[3] = molecular target: human IgG from pooled human serum (Sigma-Aldrich); assay: ELISA of heated granules, human serum, anti-IgG-HRP
[4] = molecular target: human IgG from pooled human serum (Sigma-Aldrich); assay: ELISA, granules coated on wells, pooled human serum, polyclonal anti-IgG-HRP, OPD

fold more IgG bound per particle against particles from pBHR69-ZZ(-)phaC [1]: > 10 fold | fold increased binding affinity against particles from pBHR69-ZZ(-)phaC (about 150 nm) [2]: 10 fold | binding capacity after heating for 15 min at 60° C. [3]: 60% | fold increase in absorption at 490 nm against wild type PHA granules [4]: > 2 fold
Substance: ZZ domain-PHA synthase fusion without signal peptide, on PHA granules (from UniProt P23608 1-589)
